Results from US20220411520A1 (GMAX BIOPHARM, published 2022).

Columns and labels:
[1] = target: T1, human gastric inhibitory polypeptide receptor (hGIPR) (human, UniProt P48546 22-466); assay: cell-based or functional assay
T1 sequence: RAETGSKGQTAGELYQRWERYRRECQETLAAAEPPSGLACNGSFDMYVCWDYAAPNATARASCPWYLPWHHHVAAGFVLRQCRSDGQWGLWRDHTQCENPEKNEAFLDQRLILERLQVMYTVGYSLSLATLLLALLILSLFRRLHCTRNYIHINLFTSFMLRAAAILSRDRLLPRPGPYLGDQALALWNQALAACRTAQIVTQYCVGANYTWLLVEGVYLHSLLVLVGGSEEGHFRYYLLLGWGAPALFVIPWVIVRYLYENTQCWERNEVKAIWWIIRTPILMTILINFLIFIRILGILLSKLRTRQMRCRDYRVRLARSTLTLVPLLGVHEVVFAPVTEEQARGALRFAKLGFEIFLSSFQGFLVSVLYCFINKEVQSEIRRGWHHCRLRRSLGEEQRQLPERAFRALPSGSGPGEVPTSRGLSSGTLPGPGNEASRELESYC

[2] = target: T2, monkey GIP receptor (maGIPR) (monkey, UniProt P48546 22-466 (human entry), limits assumed); assay: cell-based or functional assay
T2 chain: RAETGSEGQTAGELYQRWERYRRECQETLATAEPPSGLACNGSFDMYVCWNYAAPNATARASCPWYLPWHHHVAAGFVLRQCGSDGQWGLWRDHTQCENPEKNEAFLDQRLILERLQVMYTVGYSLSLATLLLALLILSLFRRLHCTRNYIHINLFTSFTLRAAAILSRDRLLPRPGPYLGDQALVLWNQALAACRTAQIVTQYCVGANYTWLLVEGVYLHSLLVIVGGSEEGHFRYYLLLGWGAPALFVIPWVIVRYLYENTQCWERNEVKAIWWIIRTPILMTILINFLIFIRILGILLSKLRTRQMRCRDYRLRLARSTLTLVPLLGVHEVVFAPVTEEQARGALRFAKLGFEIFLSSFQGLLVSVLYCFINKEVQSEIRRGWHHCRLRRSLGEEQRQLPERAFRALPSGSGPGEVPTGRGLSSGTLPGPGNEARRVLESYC

[3] = target: human GLP-1 receptor (hGLP-1R) (human, UniProt P43220 24-463); assay: cell-based or functional assay
[4] = target: T1, human gastric inhibitory polypeptide …; assay: FACS on CHO-DHFR-hGIPR cells
Procedure: PBS containing 10 mM EDTA was used to detach the CHO-DHFR-hGIPR cells and 10⁵ cells/tube was distributed into 1.5 mL EP tubes, and the supernatant was removed after centrifugation. The negative control sample was resuspended with a loading buffer (PBS, 2% FBS). For the positive control, 200 μL GIPR antibody solution of specific concentration was added to the cells and incubated at room temperature; after incubation, the cells were then centrifuged at 1500 rpm to remove the supernatant, washed with a FACS loading buffer and centrifuged again. The cells were resuspended with addition (200 μL/well) of a FITC labeled goat anti-mouse fluorescent antibody or PE labeled goat anti-human fluorescent antibody at 1:50 dilution and incubated at room temperature for 30 min in the dark. The supernatant was removed after centrifugation, and cells were washed with FACS loading buffer, centrifuged again and resuspended with the loading buffer for FACS analysis. The recombinant anti-hGIPR functional antibody specifically binds to GIPR-expressing CHO-DHFR-GIPR cells.

[5] = target: T3, human gastric inhibitory polypeptide receptor (hGIPR) (human) (UniProt P48546); assay: cell-based or functional assay
T3 sequence: T1 sequence

B1: GIPR antibody/GLP-1 fusion protein GLP-1-Linker-V1W5 (other)
light: HGEGTFTSDVSSYLEGQAAKEFIAWLVKGGGGGSGGGGSGGGGSDIVLTQSPASLAVSPGQRATITCRASQSVNTAVYSYIHWYQQKPGQPPKLLIKYASNLESGVPARFSGSGSGTDFTLTINPVEANDAANYYCQHSFDFPYTFGGGTKVEIKRTVAAPSVFIFPPSDEQLKSGTASVVCLLNNFYPREAKVQWKVDNALQSGNSQESVTEQDSKDSTYSLSSTLTLSKADYEKHKVYACEVTHQGLSSPVTKSFNRGEC
heavy: QVQLQESGPGLVKPSQTLSLTCTVSGYSITSDYAWNWIRQPPGKGVEWMGYISYRGIATYKPSLKSRITISRDTSKNQFSLKLSSVTAADTAVYYCVRGEYGPGNFDFWGQGTTVTVSSASTKGPSVFPLAPCSRSTSESTAALGCLVKDYFPEPVTVSWNSGALTSGVHTFPAVLQSSGLYSLSSVVTVPSSSLGTKTYTCNVDHKPSNTKVDKRVESKYGPPCPPCPAPEAAGGPSVFLFPPKPKDTLYITREPEVTCVVVDVSQEDPEVQFNWYVDGVEVHNAKTKPREEQFNSTYRVVSVLTVLHQDWLNGKEYKCKVSNKGLPSSIEKTISKAKGQPREPQVYTLPPSQEEMTKNQVSLTCLVKGFYPSDIAVEWESNGQPENNYKTTPPVLDSDGSFFLYSRLTVDKSRWQEGNVFSCSVMHEALHNHYTQKSLSLSLG
[1]
  direct cAMP assay: inhibition of GIP-activated hGIPR signaling in CHO-DHFR cells stably expressing human GIPR (IC50): 7.03 nM
[2]
  direct cAMP assay: inhibition of GIP-activated monkey GIPR signaling (IC50): 4.3 nM
[3]
  reporter gene assay (CRE-Luciferase) in CHO-DHFR- cells co-expressing hGLP-1R: activation (EC50): 0.0174 nM

B2: hGIPR antibody L10H8 (antibody, V domains shown)
VH: QVQLQQSGAEVKKPGSSVKVSCKASGGTFSSYAISWVRQAPGQGLEWMGGIIPTFGTANYAQKFQGRVTITADESTSTAYMELSSLRSEDTAVYYCAQGPIVGAPTDYWGKGTLVTVSS
VL: SYVLTQPPSASGTPGQRVAISCSGSNSNIGSNTVHWYQQLPGAAPKLLIYSNNQRPSGVPDRFSGSNSGTSASLAISRLQSEDEADYYCAAWDDSLNGVVFGGGTKVTVL
notes: Recombinantly expressed whole antibody; also called recombinant anti-hGIPR functional antibody
[4]
  binding result: binds

B3: GIPR antibody/GLP-1 fusion protein GLP-1-Linker-L7H6 (protein, part only; not given: heavy and light constant regions, not shown: a dimerising Fc or GST)
light, part: HGEGTFTSDVSSYLEGQAAKEFIAWLVKGGGGGSGGGGSGGGGSDIVLTQSPASLAVSPGQRATITCRASQSVNTAVYSYIHWYQQKPGQPPKLLIKYASNLESGVPARFSGSGSGTDFTLTINPVEANDAANYYCQHSFDFPYTFGGGTKVEIKR
heavy, part: QVQLQESGPGLVKPSQTLSLTCTVSGYSITSDYAWNWIRQPPGKGVEWMGYISYRGIATYKPSLKSRITISRDTSKNQFSLKLSSVTAADTAVYYCVRGEYGPGNFDFWGQGTTVTVSS
[3]
  reporter gene assay (CRE-Luciferase) in CHO-DHFR- cells co-expressing hGLP1R: activation (EC50): 0.04 nM
[5]
  direct cAMP assay: inhibition of GIP-activated hGIPR signaling in CHO-DHFR cells stably expressing human GIPR (IC50): 14.9 nM

B4: hGIPR antibody L7H6 (antibody, V domains shown)
VH: B3 heavy, part
VL: DIVLTQSPASLAVSPGQRATITCRASQSVNTAVYSYIHWYQQKPGQPPKLLIKYASNLESGVPARFSGSGSGTDFTLTINPVEANDAANYYCQHSFDFPYTFGGGTKVEIKR
[1]
  direct cAMP assay: inhibition of GIP-activated hGIPR signaling in CHO-DHFR cells stably expressing human GIPR (IC50): 7.6 nM
